Data set [1] deals with Dami cells. Description: Cytotoxicity-inhibitory (cell death-inhibitory) activity assay using Dami cells. The data set is classed as cell-based. Particulars: for cell death-inhibitory activity (in words): selenoprotein P and fragments purified from plasma.
Protocol: Using Dami cells (described in Greenberg S. M. et al., Blood, vol. 72, p. 1968-1977 (1988)) for use in assay system for cytotoxicity-inhibitory activity, the cells were washed twice with assay medium (50% PBS/SA/0.03% HSA (manufactured by SIGMA) or SA/0.05% BSA free from fatty acid (WAKO)/4 μM long-chain polyvalent fatty acid (e.g. arachidonic acid, linoleic acid or linolenic acid)) and suspended in the same medium at 3×10^4 cells/ml. The cell suspension was added to a 96-well plate in each 200 μl for wells for sample addition or in each 100 μl for wells for serial dilution. […] After stirring, a serial dilution was made with the wells containing 100 μl cell suspension. The plate was incubated at 37° C. in CO2 incubator for 4 to 5 days followed by assessment of survival of the cells.
The subject of data set [2] is Rolling Mouse Nagoya. Particulars: intraperitoneal administration; cited from earlier work.
The test system of data set [3] is Dami cells.
For data set [4], the system named is Dami cells. Particulars: stated as known; cited from earlier work.
In data set [5] the test system is Dami cells. Description: Toxicity of selenium-containing substances to cells in culture. Particulars: concentration where selenocystine / other selenium-containing substances show toxicity.
Data set [6] concerns Rolling Mouse Nagoya. Description: Effect of selenoprotein P on ataxia (stumbling index) in Rolling Mouse Nagoya. Format: in vivo. The method, then:
In order to confirm the activity to ameliorate ataxia of selenoprotein P, Rolling Mouse Nagoya, the established model of ataxia, was used with a stumbling index. Animals were divided into the following groups each consisting of ten animals: a control group intraperitoneally administered with saline (0.25 mL/head/week); a group intraperitoneally administered with a low dose of selenoprotein P (0.05 mg/head/week; 0.25 mL/head/week); and a group intraperitoneally administered with a high dose of selenoprotein P (0.5 mg/head/week; 0.25 mL/head/week). The animals received intraperitoneal administration once a week for three weeks.
The animals were Rolling Mouse Nagoya (113 animals, five to eight months old, weighing 19.1 to 36.2 g) regardless of sex. Grouping of the animals was based on the weight measured on the day before initiation of the experiment and a stumbling index measured before initiation of the experiment. A quantity of voluntary motion was measured during thirty minutes immediately before administration (during 30-0 min. before administration), immediately after administration (during 0-30 min. after administration), one hour after administration (during 60-90 min. after administration), three hours after administration (during 180-210 min. after administration), and seven hours after administration (during 420-450 min. after administration) with a device for measuring voluntary motion. Stumbling of animals was counted with a video camera set upon the device for measuring voluntary motion during the same time period as that of measurement of voluntary motion. A stumbling index was calculated by the formula: [Count of stumbling (count/30 min.)]/[Voluntary motion (count/30 min.)]. The results are shown in FIGS. 1 to 3 wherein #: p<0.05, ##: p<0.01, being significant as compared to values before administration (paired t-test); *: p<0.05, being significant as compared to control during the same time period (Turkey test).

Data set [7] is described as follows: Stability of selenoprotein P and its fragments to heat, denaturing agent, pH, protease in blood. Format: physicochemical. Particulars: compared to common enzymes.

Where two headings read alike, the source gives them in different places. Where a SMILES comes first, the peptide text is derived from it. Where no end group is shown, it is not given here. [ ]: non-standard residue; d: D form. Sec = N[C@@H](C[SeH])C(=O)O

Consider six molecules from patent US20070249534A1, “Novel medicament for treating neurodegenerative diseases” (priority 2001, published 2007).

Regarding “Lys Arg Cys Ile Asn Gln Leu Leu Cys Lys Leu Pro Thr Asp Ser Glu Leu Ala Pro Arg Ser Xaa Cys Cys H is Cys Arg H is Leu Ile Phe Glu Lys (KRCINQLLCKLPTDSELAPRS[Sec]CCHCRHLIFEK; cysteine pairing not given here; listed as Human plasma) [SEQ ID NO: 3, peptide purified under reduced condition from selenoprotein P fragment]”, the “cell death-inhibitory activity (in words)” value in data set [1] is “had the cell death-inhibiting activity”.

Turning to `NC(=O)[C@@H]1CCCN1C(=O)[C@H](Cc1cnc[nH]1)NC(=O)[C@@H]1CCC(=O)N1` [TRH, thyrotropin-releasing hormone], in data set [2], the “duration of the efficacy” value is reported as “about 1 hours”.

Take `N[C@@H](C[Se][Se]C[C@H](N)C(=O)O)C(=O)O` [selenocystine]: the “toxicity (in words)” value in data set [3] is recorded as “exhibited toxicity”. Moreover, the “toxicity when added alone to cell culture” value in data set [4] is reported as “fairly strong toxicity”.

In the case of `CC[C@H](C)[C@H](NC(=O)[C@H](CC(C)C)NC(=O)[C@H](Cc1c[nH]cn1)NC(=O)[C@H](CCCNC(=N)N)NC(=O)[C@H](CO)NC(=O)[C@H](Cc1c[nH]cn1)NC(=O)[C@H](CO)NC(=O)[C@H](CO)NC(=O)[C@H](C[SeH])NC(=O)[C@H](CO)NC(=O)[C@@H](N)CCCNC(=N)N)C(=O)N[C@@H](Cc1ccccc1)C(=O)N[C@@H](CCC(=O)O)C(=O)N[C@@H](CCCCN)C(=O)O` [Peptide 6, Arg Ser Xaa Ser Ser His Ser Arg His Leu Ile Phe Glu Lys] (H-RS[Sec]SSHSRHLIFEK-OH), the “cytotoxicity-inhibitory activity (in words)” value in data set [1] (Dami cells, peptides of Preparation 2) was “most effectively at the lowest concentration”.

B1: selenoprotein P (protein)
chain: ESQDQSSLCKQPPAWSIRDQDPMLNSNGSVTVVALLQASUYLCILQASKLEDLRVKLKKEGYSNISYIVVNHQGISSRLKYTHLKNKVSEHIPVYQQEENQTDVWTLLNGSKDDFLIYDRCGRLVYHLGLPFSFLTFPYVEEAIKIAYCEKKCGNCSLTTLKDEDFCKRVSLATVDKTVETPSPHYHHEHHHNHGHQHLGSSELSENQQPGAPNAPTHPAPPGLHHHHKHKGQHRQGHPENRDMPASEDLQDLQKKLCRKRCINQLLCKLPTDSELAPRSUCCHCRHLIFEKTGSAITUQCKENLPSLCSUQGLRAEENITESCQURLPPAAUQISQQLIPTEASASURUKNQAKKUEUPSN
modifications: non-natural residues
In the case of B1, the “toxicity (in words)” value in data set [5] was “no strong toxicity”. The “cell death-inhibitory activity (in words)” value in data set [1] is listed as “much lower than that of the fragment thereof”. In addition, the “stumbling index compared with values before administration” value in data set [6] (high dose 0.5 mg/head/week i.p., 420-450 min Week 1, 60-90, 180-210, 420-450 min Week 2, 60-90 min Week 3) is recorded as “significant decrease”. The “stumbling index compared with control group, significance” value in data set [6] (high dose 0.5 mg/head/week i.p., during 60-90 min. after administration on Week 1) is reported as “significant decrease”. The “stumbling index compared with control group” value in data set [6] (high dose 0.5 mg/head/week i.p., each time period on Week 1, Week 2 and Week 3) is “remained lower than the control group”. In addition, the “stumbling index, low dose group” value in data set [6] (low dose 0.05 mg/head/week i.p.) was “no significant decrease”. Moreover, the “stability to heat, a denaturing agent, a broad range of pH or protease in blood” value in data set [7] was “rather stable”.

B2: SEQ ID NO: 2: selenoprotein P fragment, 260th to 362nd amino acids (103 C-terminal residues) (protein, listed as Human plasma)
chain: KRCINQLLCKLPTDSELAPRS[code U]CCHCRHLIFEKTGSAIT[code U]QCKENLPSLCS[code U]QGLRAEENITESCQ[code U]RLPPAA[code U]QISQQLIPTEASAS[code U]R[code U]KNQAKK[code U]E[code U]PSN
modifications: ends and bridges not checked
As to B2, the “cell death-inhibitory activity (in words)” value in data set [1] is “having the cell death-inhibiting activity”.
